What was measured:
[1] = target: Tau, brain-derived (human (AD patient brain), UniProt P10636-8 1-441); assay: GFET Dirac shift; detected to 10-100 fM; GFET with immobilised aptamer; protein in 0.1x PBS (LoD series) or PBS; aptamer dissolved in 1x PBS + 0.5 mM MgCl2; pH and temperature of binding not given; conditions: protein: native
[2] = target: Tau441 (synthetic/commercial) (human, UniProt P10636-8 1-441); assay: GFET Dirac shift; LoD 1-10 pM in abstract, ~100 fM in Results (not a Kd); GFET with immobilised aptamer; protein in 0.1x PBS (LoD series) or PBS; aptamer dissolved in 1x PBS + 0.5 mM MgCl2; pH and temperature of binding not given
[3] = target: alpha-synuclein (synthetic/commercial) (UniProt P37840 1-140); assay: GFET Dirac shift; LoD 10-100 fM (not a Kd); GFET with immobilised aptamer; protein in 0.1x PBS (LoD series) or PBS; aptamer dissolved in 1x PBS + 0.5 mM MgCl2; pH and temperature of binding not given
[4] = target: alpha-synuclein, brain-derived (human (PD patient brain), UniProt P37840 1-140); assay: GFET Dirac shift; detected to 10-100 nM as printed; GFET with immobilised aptamer; protein in 0.1x PBS (LoD series) or PBS; aptamer dissolved in 1x PBS + 0.5 mM MgCl2; pH and temperature of binding not given
[5] = target: Amyloid-beta 1-42 (synthetic) (UniProt P05067 672-713); assay: GFET Dirac shift; LoD 10 fM (not a Kd); GFET with immobilised aptamer; protein in 0.1x PBS (LoD series) or PBS; aptamer dissolved in 1x PBS + 0.5 mM MgCl2; pH and temperature of binding not given
[6] = target: Amyloid-beta 1-42, brain-derived (human (AD patient brain), UniProt P05067 672-713); assay: GFET Dirac shift; detected to ~10 fM, dose-dependent; GFET with immobilised aptamer; protein in 0.1x PBS (LoD series) or PBS; aptamer dissolved in 1x PBS + 0.5 mM MgCl2; pH and temperature of binding not given; conditions: protein: native
Sequence of Amyloid-beta 1-42, brain-derived (P05067 672-713): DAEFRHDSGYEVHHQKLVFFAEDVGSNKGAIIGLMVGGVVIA

Sequence of Tau441 (synthetic/commercial) (P10636 other isoform, or with tags, fused parts or gaps): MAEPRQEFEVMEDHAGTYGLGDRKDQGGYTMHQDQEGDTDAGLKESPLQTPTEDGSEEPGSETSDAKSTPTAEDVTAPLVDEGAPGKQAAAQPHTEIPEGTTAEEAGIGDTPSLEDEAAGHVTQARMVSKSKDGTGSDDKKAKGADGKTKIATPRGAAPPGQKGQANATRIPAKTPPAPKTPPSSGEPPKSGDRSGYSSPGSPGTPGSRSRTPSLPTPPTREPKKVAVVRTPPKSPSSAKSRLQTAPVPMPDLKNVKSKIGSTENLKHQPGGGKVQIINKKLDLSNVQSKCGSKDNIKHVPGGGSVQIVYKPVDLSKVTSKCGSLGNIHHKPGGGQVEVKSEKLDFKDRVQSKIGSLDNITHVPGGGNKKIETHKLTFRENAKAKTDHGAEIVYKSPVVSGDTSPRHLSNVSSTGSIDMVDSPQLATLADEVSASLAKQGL
Sequence of Tau, brain-derived (P10636 other isoform, or with tags, fused parts or gaps): as above
Sequence of Amyloid-beta 1-42 (synthetic) (P05067 672-713): as the sequence (P05067 672-713) above

B1: Tau aptamer IT2 (ssDNA)
DNA: CAGCACCGTCAACTGAATAAGGACTGCTTAGGATTGCGATGATTCAGGGTGATGCGATGGAGATGT
modifications: 3' amino
**Q.** Does B1 bind [1]?
**A.** binds

**Q.** Does B1 bind [2]?
**A.** binds

B2: alpha-synuclein aptamer F5R1 (ssDNA)
DNA: ATCGAGTGTGTACGGGGTCCGGTAGGGTGGCGAGGTCTTCCTGTCGTAGCAGGATCCA
modifications: 3' amino
**Q.** Does B2 bind [3]?
**A.** binds

**Q.** Does B2 bind [4]?
**A.** binds

**Q.** Does CCGGTGGGGGACCAGTACAAAAGTGGGTAGGGCGGGTTGGAAAA (ssDNA, 3' amino) [Abeta aptamer Abeta7-92-1H1] bind [5]?
**A.** binds

**Q.** Does CCGGTGGGGGACCAGTACAAAAGTGGGTAGGGCGGGTTGGAAAA (ssDNA, 3' amino) [Abeta aptamer Abeta7-92-1H1] bind [6]?
**A.** binds

Reference: article PMC10666025, “In pursuit of degenerative brain disease diagnosis: Dementia biomarkers detected by DNA aptamer-attached portable graphene biosensor”
